# From PMC9610346
# What was measured:
# [1] = molecular target: gp145 SOSIP construct of the Env spike protein from the HIV-1 BG505 clade A strain, nanodisc-embedded trimer (HIV-1 strain BG505 (clade A)); test: cryo-EM structure
# [2] = molecular target: gp145 SOSIP construct of the Env spike protein from the HIV-1 BG505 clade A strain, nanodisc-embedded trimer (HIV-1 strain BG505 (clade A)); test: negative-stain EM
substance,measurement,setting,value
"gp145 SOSIP construct of the Env spike protein from the HIV-1 BG505 clade A strain, nanodisc-embedded trimer (complex)",stoichiometry N,[1],3
same,stoichiometry N,[2],3
